Measurements taken from US20210301025A1 (published 2021).

What was measured:
[1] = biological target: T1, EGFR (form used in the assay not stated) (human, UniProt P00533 25-645, limits assumed); test: ELISA, NEM conjugate, 100 nM
[2] = biological target: T1, EGFR (form used in the assay not stated); test: ELISA, NEM conjugate, 10 nM
[3] = biological target: T1, EGFR (form used in the assay not stated); test: ELISA, NEM conjugate, 500 nM

B1: P54AR4-83v2 P24C, NEM conjugate (designed binder, not shown: small tags and cut ends)
chain: LPAPKNLVVSEVTEDSARLSWDDCWAFYESFLIQYQESEKVGEAIVLTVPGSERSYDLTGLKPGTEYTVSIYGVHNVYKDTNMRGLPLSAIFTT
modifications: N-ethyl maleimide (NEM) on Cys 24
- binding relative to P54AR4-83v2 parent [1]: 0.85 ratio
- binding relative to P54AR4-83v2 parent [2]: 0.45 ratio
- binding relative to P54AR4-83v2 parent [3]: 0.83 ratio

B2: P54AR4-83v2 S89C, NEM conjugate (designed binder, not shown: small tags and cut ends)
chain: LPAPKNLVVSEVTEDSARLSWDDPWAFYESFLIQYQESEKVGEAIVLTVPGSERSYDLTGLKPGTEYTVSIYGVHNVYKDTNMRGLPLCAIFTT
modifications: N-ethyl maleimide (NEM) on Cys 89
- binding relative to P54AR4-83v2 parent [1]: 1.02 ratio
- binding relative to P54AR4-83v2 parent [2]: 0.97 ratio
- binding relative to P54AR4-83v2 parent [3]: 1.04 ratio

B3: P54AR4-83v2 S55C, NEM conjugate (designed binder, not shown: small tags and cut ends)
chain: LPAPKNLVVSEVTEDSARLSWDDPWAFYESFLIQYQESEKVGEAIVLTVPGSERCYDLTGLKPGTEYTVSIYGVHNVYKDTNMRGLPLSAIFTT
modifications: N-ethyl maleimide (NEM) on Cys 55
- binding relative to P54AR4-83v2 parent [1]: 0 ratio
- binding relative to P54AR4-83v2 parent [2]: 0 ratio
- binding relative to P54AR4-83v2 parent [3]: 0.11 ratio

B4: P54AR4-83v2 S52C, NEM conjugate (designed binder, not shown: small tags and cut ends)
chain: LPAPKNLVVSEVTEDSARLSWDDPWAFYESFLIQYQESEKVGEAIVLTVPGCERSYDLTGLKPGTEYTVSIYGVHNVYKDTNMRGLPLSAIFTT
modifications: N-ethyl maleimide (NEM) on Cys 52
- binding relative to P54AR4-83v2 parent [1]: 1.03 ratio
- binding relative to P54AR4-83v2 parent [2]: 0.78 ratio
- binding relative to P54AR4-83v2 parent [3]: 0.93 ratio

B5: P54AR4-83v2 P50C, NEM conjugate (designed binder, not shown: small tags and cut ends)
chain: LPAPKNLVVSEVTEDSARLSWDDPWAFYESFLIQYQESEKVGEAIVLTVCGSERSYDLTGLKPGTEYTVSIYGVHNVYKDTNMRGLPLSAIFTT
modifications: N-ethyl maleimide (NEM) on Cys 50
- binding relative to P54AR4-83v2 parent [1]: 1.05 ratio
- binding relative to P54AR4-83v2 parent [2]: 0.91 ratio
- binding relative to P54AR4-83v2 parent [3]: 0.97 ratio

B6: P54AR4-83v2 R18C, NEM conjugate (designed binder, not shown: small tags and cut ends)
chain: LPAPKNLVVSEVTEDSACLSWDDPWAFYESFLIQYQESEKVGEAIVLTVPGSERSYDLTGLKPGTEYTVSIYGVHNVYKDTNMRGLPLSAIFTT
modifications: N-ethyl maleimide (NEM) on Cys 18
- binding relative to P54AR4-83v2 parent [1]: 1.05 ratio
- binding relative to P54AR4-83v2 parent [2]: 0.86 ratio
- binding relative to P54AR4-83v2 parent [3]: 0.94 ratio

B7: P54AR4-83v2 S30C, NEM conjugate (designed binder, not shown: small tags and cut ends)
chain: LPAPKNLVVSEVTEDSARLSWDDPWAFYECFLIQYQESEKVGEAIVLTVPGSERSYDLTGLKPGTEYTVSIYGVHNVYKDTNMRGLPLSAIFTT
modifications: N-ethyl maleimide (NEM) on Cys 30
notes: also called 530C
- binding relative to P54AR4-83v2 parent [1]: 1.02 ratio
- binding relative to P54AR4-83v2 parent [2]: 0.9 ratio
- binding relative to P54AR4-83v2 parent [3]: 0.9 ratio

B8: P54AR4-83v2 T48C, NEM conjugate (designed binder, not shown: small tags and cut ends)
chain: LPAPKNLVVSEVTEDSARLSWDDPWAFYESFLIQYQESEKVGEAIVLCVPGSERSYDLTGLKPGTEYTVSIYGVHNVYKDTNMRGLPLSAIFTT
modifications: N-ethyl maleimide (NEM) on Cys 48
- binding relative to P54AR4-83v2 parent [1]: 1 ratio
- binding relative to P54AR4-83v2 parent [2]: 0.88 ratio
- binding relative to P54AR4-83v2 parent [3]: 0.93 ratio

B9: P54AR4-83v2 T13C, NEM conjugate (designed binder, not shown: small tags and cut ends)
chain: LPAPKNLVVSEVCEDSARLSWDDPWAFYESFLIQYQESEKVGEAIVLTVPGSERSYDLTGLKPGTEYTVSIYGVHNVYKDTNMRGLPLSAIFTT
modifications: N-ethyl maleimide (NEM) on Cys 13
- binding relative to P54AR4-83v2 parent [1]: 1.04 ratio
- binding relative to P54AR4-83v2 parent [2]: 0.87 ratio
- binding relative to P54AR4-83v2 parent [3]: 0.9 ratio

B10: P54AR4-83v2 S38C, NEM conjugate (designed binder, not shown: small tags and cut ends)
chain: LPAPKNLVVSEVTEDSARLSWDDPWAFYESFLIQYQECEKVGEAIVLTVPGSERSYDLTGLKPGTEYTVSIYGVHNVYKDTNMRGLPLSAIFTT
modifications: N-ethyl maleimide (NEM) on Cys 38
- binding relative to P54AR4-83v2 parent [1]: 0.93 ratio
- binding relative to P54AR4-83v2 parent [2]: 0.8 ratio
- binding relative to P54AR4-83v2 parent [3]: 0.82 ratio

B11: P54AR4-83v2 S70C, NEM conjugate (designed binder, not shown: small tags and cut ends)
chain: LPAPKNLVVSEVTEDSARLSWDDPWAFYESFLIQYQESEKVGEAIVLTVPGSERSYDLTGLKPGTEYTVCIYGVHNVYKDTNMRGLPLSAIFTT
modifications: N-ethyl maleimide (NEM) on Cys 70
notes: also called 570C
- binding relative to P54AR4-83v2 parent [1]: 1.01 ratio
- binding relative to P54AR4-83v2 parent [2]: 0.86 ratio
- binding relative to P54AR4-83v2 parent [3]: 0.93 ratio

B12: P54AR4-83v2 S10C, NEM conjugate (designed binder, not shown: small tags and cut ends)
chain: LPAPKNLVVCEVTEDSARLSWDDPWAFYESFLIQYQESEKVGEAIVLTVPGSERSYDLTGLKPGTEYTVSIYGVHNVYKDTNMRGLPLSAIFTT
modifications: N-ethyl maleimide (NEM) on Cys 10
- binding relative to P54AR4-83v2 parent [1]: 1.07 ratio
- binding relative to P54AR4-83v2 parent [2]: 0.83 ratio
- binding relative to P54AR4-83v2 parent [3]: 0.96 ratio

B13: P54AR4-83v2 S20C, NEM conjugate (designed binder, not shown: small tags and cut ends)
chain: LPAPKNLVVSEVTEDSARLCWDDPWAFYESFLIQYQESEKVGEAIVLTVPGSERSYDLTGLKPGTEYTVSIYGVHNVYKDTNMRGLPLSAIFTT
modifications: N-ethyl maleimide (NEM) on Cys 20
notes: also called 520C
- binding relative to P54AR4-83v2 parent [1]: 1.05 ratio
- binding relative to P54AR4-83v2 parent [2]: 0.81 ratio
- binding relative to P54AR4-83v2 parent [3]: 0.91 ratio

B14: P54AR4-83v2 T59C, NEM conjugate (designed binder, not shown: small tags and cut ends)
chain: LPAPKNLVVSEVTEDSARLSWDDPWAFYESFLIQYQESEKVGEAIVLTVPGSERSYDLCGLKPGTEYTVSIYGVHNVYKDTNMRGLPLSAIFTT
modifications: N-ethyl maleimide (NEM) on Cys 59
- binding relative to P54AR4-83v2 parent [1]: 1.04 ratio
- binding relative to P54AR4-83v2 parent [2]: 0.83 ratio
- binding relative to P54AR4-83v2 parent [3]: 0.93 ratio

B15: P54AR4-83v2 T68C, NEM conjugate (designed binder, not shown: small tags and cut ends)
chain: LPAPKNLVVSEVTEDSARLSWDDPWAFYESFLIQYQESEKVGEAIVLTVPGSERSYDLTGLKPGTEYCVSIYGVHNVYKDTNMRGLPLSAIFTT
modifications: N-ethyl maleimide (NEM) on Cys 68
notes: not used
- binding relative to P54AR4-83v2 parent [1]: 1.04 ratio
- binding relative to P54AR4-83v2 parent [2]: 0.83 ratio
- binding relative to P54AR4-83v2 parent [3]: 0.95 ratio

B16: P54AR4-83v2 R84C, NEM conjugate (designed binder, not shown: small tags and cut ends)
chain: LPAPKNLVVSEVTEDSARLSWDDPWAFYESFLIQYQESEKVGEAIVLTVPGSERSYDLTGLKPGTEYTVSIYGVHNVYKDTNMCGLPLSAIFTT
modifications: N-ethyl maleimide (NEM) on Cys 84
- binding relative to P54AR4-83v2 parent [1]: 1.04 ratio
- binding relative to P54AR4-83v2 parent [2]: 0.91 ratio
- binding relative to P54AR4-83v2 parent [3]: 0.98 ratio

B17: P54AR4-83v2 P63C, NEM conjugate (designed binder, not shown: small tags and cut ends)
chain: LPAPKNLVVSEVTEDSARLSWDDPWAFYESFLIQYQESEKVGEAIVLTVPGSERSYDLTGLKCGTEYTVSIYGVHNVYKDTNMRGLPLSAIFTT
modifications: N-ethyl maleimide (NEM) on Cys 63
- binding relative to P54AR4-83v2 parent [1]: 1.02 ratio
- binding relative to P54AR4-83v2 parent [2]: 0.95 ratio
- binding relative to P54AR4-83v2 parent [3]: 0.92 ratio

B18: P54AR4-83v2 S16C, NEM conjugate (designed binder, not shown: small tags and cut ends)
chain: LPAPKNLVVSEVTEDCARLSWDDPWAFYESFLIQYQESEKVGEAIVLTVPGSERSYDLTGLKPGTEYTVSIYGVHNVYKDTNMRGLPLSAIFTT
modifications: N-ethyl maleimide (NEM) on Cys 16
- binding relative to P54AR4-83v2 parent [1]: 1.05 ratio
- binding relative to P54AR4-83v2 parent [2]: 0.88 ratio
- binding relative to P54AR4-83v2 parent [3]: 0.63 ratio

B19: P54AR4-83v2 Q34C, NEM conjugate (designed binder, not shown: small tags and cut ends)
chain: LPAPKNLVVSEVTEDSARLSWDDPWAFYESFLICYQESEKVGEAIVLTVPGSERSYDLTGLKPGTEYTVSIYGVHNVYKDTNMRGLPLSAIFTT
modifications: N-ethyl maleimide (NEM) on Cys 34
- binding relative to P54AR4-83v2 parent [1]: 1.03 ratio
- binding relative to P54AR4-83v2 parent [2]: 0.89 ratio
- binding relative to P54AR4-83v2 parent [3]: 0.94 ratio

B20: P54AR4-83v2 P87C, NEM conjugate (designed binder, not shown: small tags and cut ends)
chain: LPAPKNLVVSEVTEDSARLSWDDPWAFYESFLIQYQESEKVGEAIVLTVPGSERSYDLTGLKPGTEYTVSIYGVHNVYKDTNMRGLCLSAIFTT
modifications: N-ethyl maleimide (NEM) on Cys 87
- binding relative to P54AR4-83v2 parent [1]: 0.93 ratio
- binding relative to P54AR4-83v2 parent [2]: 0.73 ratio
- binding relative to P54AR4-83v2 parent [3]: 0.91 ratio

B21: P54AR4-83v2 R54C, NEM conjugate (designed binder, not shown: small tags and cut ends)
chain: LPAPKNLVVSEVTEDSARLSWDDPWAFYESFLIQYQESEKVGEAIVLTVPGSECSYDLTGLKPGTEYTVSIYGVHNVYKDTNMRGLPLSAIFTT
modifications: N-ethyl maleimide (NEM) on Cys 54
- binding relative to P54AR4-83v2 parent [1]: 1.01 ratio
- binding relative to P54AR4-83v2 parent [2]: 0.89 ratio
- binding relative to P54AR4-83v2 parent [3]: 0.93 ratio
